Measured values: FireProtDB (doi:10.1021/bi00010a002)

Conditions: Saccharomyces cerevisiae (strain ATCC 204508 / S288c), pH 2.1, Thermal, CD, Na2SO4-H2SO4 0.33 M
[1] = reversible: yes (>80%), structure 1YCC
[2] = reversible: yes (>70%), structure 1YCC

Chain of Cytochrome c isoform 1 A13Y, P00044 (P00044 whole entry A13Y, canonical isoform): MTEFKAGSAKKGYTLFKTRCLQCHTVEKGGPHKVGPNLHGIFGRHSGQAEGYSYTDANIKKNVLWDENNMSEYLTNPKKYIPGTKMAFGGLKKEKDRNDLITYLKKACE
Chain of Cytochrome c isoform 1 F16W, P00044 (P00044 whole entry F16W, canonical isoform): as the sequence (P00044 whole entry A13Y, canonical isoform) above, with Y13A, F16W counted along it
Chain of Cytochrome c isoform 1 A13L, P00044 (P00044 whole entry A13L, canonical isoform): as the sequence (P00044 whole entry A13Y, canonical isoform) above, with Y13L counted along it
Chain of Cytochrome c isoform 1 L100I, P00044 (P00044 whole entry L100I, canonical isoform): as the sequence (P00044 whole entry A13Y, canonical isoform) above, with Y13A, L100I counted along it
Chain of Cytochrome c isoform 1 F16Y, P00044 (P00044 whole entry F16Y, canonical isoform): as the sequence (P00044 whole entry A13Y, canonical isoform) above, with Y13A, F16Y counted along it
Chain of Cytochrome c isoform 1 Y103F, P00044 (P00044 whole entry Y103F, canonical isoform): as the sequence (P00044 whole entry A13Y, canonical isoform) above, with Y13A, Y103F counted along it
Chain of Cytochrome c isoform 1 wild type, P00044 (P00044 whole entry, canonical isoform): as the sequence (P00044 whole entry A13Y, canonical isoform) above, with Y13A counted along it

Substance: Cytochrome c isoform 1 Y103F, P00044
- Tm [1]: 33.3 °C
- change of melting temperature, mutant - wild type (higher = more stable) [1]: -2.1 °C
- unfolding enthalpy (van 't Hoff) [1]: 33 kcal/mol

Substance: Cytochrome c isoform 1 A13L, P00044
- Tm [1]: 33.7 °C
- change of melting temperature, mutant - wild type (higher = more stable) [1]: -1.7 °C
- unfolding enthalpy (van 't Hoff) [1]: 37.9 kcal/mol

Substance: Cytochrome c isoform 1 wild type, P00044
- Tm (reversible: yes (>90%)): 35.4 °C
- unfolding enthalpy (van 't Hoff) (reversible: yes (>90%)): 38.1 kcal/mol

Substance: Cytochrome c isoform 1 F16Y, P00044
- Tm [2]: 28.4 °C
- change of melting temperature, mutant - wild type (higher = more stable) [2]: -7 °C
- unfolding enthalpy (van 't Hoff) [2]: 40.6 kcal/mol

Substance: Cytochrome c isoform 1 L100I, P00044
- Tm [1]: 33.7 °C
- change of melting temperature, mutant - wild type (higher = more stable) [1]: -1.7 °C
- unfolding enthalpy (van 't Hoff) [1]: 35.8 kcal/mol

Substance: Cytochrome c isoform 1 A13Y, P00044
- Tm [1]: 36 °C
- change of melting temperature, mutant - wild type (higher = more stable) [1]: 0.6 °C
- unfolding enthalpy (van 't Hoff) [1]: 41.5 kcal/mol

Substance: Cytochrome c isoform 1 F16W, P00044
- Tm [1]: 23.1 °C
- change of melting temperature, mutant - wild type (higher = more stable) [1]: -12.3 °C
- unfolding enthalpy (van 't Hoff) [1]: 28.9 kcal/mol
